The values that follow come from the supplement of paper PMC7877785.

± gives the uncertainty stated by the source.

This data set can be described thus: self-splicing fitness, log relative to wild type (ln ratio); higher = more splicing; Tetrahymena group I intron in knt gene, E. coli kanamycin selection, DiMSum; sequences stand for … in CUCUCU…GGAGGGAAAAGUUAUCAGGCAUGCACCUGGUAGCUAGUCUUUAAACCAAUAGAUUGCAUCGGUUUAAAAGGCAAGACCGUCAAAUUGCGGGAAAGGGGUCAACAGCCGUUCAGUACCAAGUCUCAGGGGAAACUUUGAGAUGGCCUUGCAAAGGGUAUGGUAAUAAGCUGACGGACAUGGUCCUAACCACGCAGCCAAGUCCUAAGUCAACAGAUCUUCUGUUGAUAUGGAUGCAGUUCACAGACUAAAUGUCGGUCGGGGAAGAUGUAUUCUUCUCAUAAGAUAUAGUCGGACCUCUCCUUAAUGGGAGCUAGCGGAUGAAGUGAUGCAACACUGGAGCCGCUGGGAACUAAUUUGUAUGCGAAAGUAUAUUGAUUAGUUUUGGAGUACUCGUGGUCG
An outline of the steps:
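Colonies from six replicate transformations of E. coli BL21(DE3) were pooled and amplicon-sequenced on an Illumina HiSeq 2500. The library placed an intron with all eight P1ex-region nucleotides randomised inside the knt kanamycin-resistance gene on pET-22b(+), and cells grew overnight at 37°C or 30°C on LB agar with or without 25 μg/mL kanamycin (plus 100 μg/mL carbenicillin, 50 μM IPTG, 0.2% rhamnose). Fitness is the DiMSum error-weighted combination of wild-type-normalised replicate fold changes, kanamycin versus none.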

GAAUAGCAAUAUUACGUUAC: the “self-splicing fitness (ln)” value runs as follows: (30 °C) -1.97 ± 0.13; (37 °C) -1.6 ± 0.21. As to GACAAGCAAUAUUACGAACC, the “self-splicing fitness (ln)” value by setting is: (30 °C) -1.06 ± 0.14; (37 °C) -0.514 ± 0.17. In the case of GACAAGCAAUAUUACGAAUC, the “self-splicing fitness (ln)” value reads like this: (30 °C) -2.49 ± 0.12; (37 °C) -2.53 ± 0.16. GACAAGCAAUAUUACGACCA: the “self-splicing fitness (ln)” value is -0.459 ± 0.12 (30 °C) and -0.806 ± 0.13 (37 °C). For GACAAGCAAUAUUACGACGA, in that order: -0.615 ± 0.067 and 0.296 ± 0.095.

In the case of GACAAGCAAUAUUACGACGC, the “self-splicing fitness (ln)” value reads like this: (30 °C) 0.305 ± 0.1; (37 °C) 0.643 ± 0.13. Regarding GACAAGCAAUAUUACGACGG, the “self-splicing fitness (ln)” value (30 °C) is -3.3 ± 0.2 and the “self-splicing fitness (ln)” value (37 °C) was -2.64 ± 0.17.

Take GACAAGCAAUAUUACGACUG: the “self-splicing fitness (ln)” value reads like this: (30 °C) -0.381 ± 0.056; (37 °C) -0.0494 ± 0.092. For the sequence GACAAGCAAUAUUACGAGGC, the “self-splicing fitness (ln)” value is -2.4 ± 0.16 (30 °C) and -2.76 ± 0.32 (37 °C). With GACAAGCAAUAUUACGAUAG, the “self-splicing fitness (ln)” value (30 °C) is -2.76 ± 0.22 and the “self-splicing fitness (ln)” value (37 °C) was -0.828 ± 0.12. For GACAAGCAAUAUUACGCCGA, in that order: -1.19 ± 0.12 and -0.179 ± 0.14. With GACAAGCAAUAUUACGCCGG, the “self-splicing fitness (ln)” value is -2.63 ± 0.32 (30 °C) and -1.92 ± 0.28 (37 °C). With GACAAGCAAUAUUACGCUUG, the “self-splicing fitness (ln)” value was -4.51 ± 0.29 (30 °C) and -2.76 ± 0.27 (37 °C). On to GACAAGCAAUAUUACGGCAA, for which the “self-splicing fitness (ln)” value reads like this: (30 °C) -0.787 ± 0.075; (37 °C) -0.384 ± 0.074. With GACAAGCAAUAUUACGGCCU, the “self-splicing fitness (ln)” value (30 °C) was -0.429 ± 0.082 and the “self-splicing fitness (ln)” value (37 °C) is -0.314 ± 0.1. On to GACAAGCAAUAUUACGGGAG, for which the “self-splicing fitness (ln)” value reads like this: (30 °C) -3.18 ± 0.11; (37 °C) -1.52 ± 0.1. Take GACAAGCAAUAUUACGGUGU: the “self-splicing fitness (ln)” value (30 °C) was -3.98 ± 0.13 and the “self-splicing fitness (ln)” value (37 °C) is -1.9 ± 0.11.

GACAAGCAAUAUUACGUAGC: the “self-splicing fitness (ln)” value reads like this: (30 °C) -1.48 ± 0.069; (37 °C) -0.611 ± 0.076. For GACAAGCAAUAUUACGUAUU, in that order: -2.83 ± 0.1 and -1.66 ± 0.11. For GACAAGCAAUAUUACGUCCU, the “self-splicing fitness (ln)” value reads like this: (30 °C) -1.99 ± 0.27; (37 °C) -0.755 ± 0.19. For the sequence GACAAGCAAUAUUACGUCUC, the “self-splicing fitness (ln)” value reads like this: (30 °C) -4.15 ± 0.27; (37 °C) -1.18 ± 0.19.

For GACAAGCAAUAUUACGUGGA, the “self-splicing fitness (ln)” value is, setting by setting: (30 °C) -3.18 ± 0.16; (37 °C) -1.42 ± 0.1. On to GACAAGCAAUAUUACGUUGU, for which the “self-splicing fitness (ln)” value (30 °C) was -3.54 ± 0.12 and the “self-splicing fitness (ln)” value (37 °C) was -2.81 ± 0.14. For GACCAGCAAUAUUACGAAAU, in that order: -1.34 ± 0.093 and -0.476 ± 0.098.

Consider GACCAGCAAUAUUACGACUC, for which the “self-splicing fitness (ln)” value by setting is: (30 °C) -0.264 ± 0.06; (37 °C) 0.162 ± 0.077. In the case of GACCAGCAAUAUUACGAGAG, the “self-splicing fitness (ln)” value runs as follows: (30 °C) -3.61 ± 0.2; (37 °C) -1.51 ± 0.13. For GACCAGCAAUAUUACGAGCU, in that order: -2.91 ± 0.14 and -1.41 ± 0.15.

With GACCAGCAAUAUUACGAUAU, the “self-splicing fitness (ln)” value by setting is: (30 °C) -0.781 ± 0.072; (37 °C) -0.235 ± 0.086. In the case of GACCAGCAAUAUUACGCAGU, the “self-splicing fitness (ln)” value reads like this: (30 °C) -1.56 ± 0.067; (37 °C) -0.904 ± 0.09. For the sequence GACCAGCAAUAUUACGCCAA, the “self-splicing fitness (ln)” value is -2.99 ± 0.22 (30 °C) and -1.45 ± 0.15 (37 °C). On to GACCAGCAAUAUUACGCCCC, for which the “self-splicing fitness (ln)” value (30 °C) is -1.35 ± 0.17 and the “self-splicing fitness (ln)” value (37 °C) is -0.908 ± 0.17.

As for GACCAGCAAUAUUACGCCGG, the “self-splicing fitness (ln)” value reads like this: (30 °C) -2.59 ± 0.16; (37 °C) -2.58 ± 0.29. Take GACCAGCAAUAUUACGCCUU: the “self-splicing fitness (ln)” value was -0.277 ± 0.07 (30 °C) and 0.293 ± 0.087 (37 °C). For GACCAGCAAUAUUACGCGAG, in that order: -1.37 ± 0.16 and -0.897 ± 0.13.

Turning to GACCAGCAAUAUUACGCGAU, the “self-splicing fitness (ln)” value reads like this: (30 °C) -2.28 ± 0.11; (37 °C) -1.17 ± 0.093.

Regarding GACCAGCAAUAUUACGCUGC, the “self-splicing fitness (ln)” value was -3.73 ± 0.22 (30 °C) and -1.32 ± 0.15 (37 °C). With GACCAGCAAUAUUACGGAAC, the “self-splicing fitness (ln)” value (30 °C) was -0.88 ± 0.098 and the “self-splicing fitness (ln)” value (37 °C) is -0.504 ± 0.11. For the sequence GACCAGCAAUAUUACGGCGC, the “self-splicing fitness (ln)” value (30 °C) was -0.331 ± 0.09 and the “self-splicing fitness (ln)” value (37 °C) turned out to be 0.162 ± 0.1.

Consider GACCAGCAAUAUUACGGCUC, for which the “self-splicing fitness (ln)” value by setting is: (30 °C) -0.856 ± 0.13; (37 °C) 0.658 ± 0.15. Take GACCAGCAAUAUUACGGGGC: the “self-splicing fitness (ln)” value is -2.78 ± 0.18 (30 °C) and -2.14 ± 0.15 (37 °C). For the sequence GACCAGCAAUAUUACGGUAA, the “self-splicing fitness (ln)” value runs as follows: (30 °C) 0.0402 ± 0.06; (37 °C) -0.0565 ± 0.071. Regarding GACCAGCAAUAUUACGGUGA, the “self-splicing fitness (ln)” value was -0.339 ± 0.057 (30 °C) and -0.154 ± 0.081 (37 °C). GACCAGCAAUAUUACGUAUU: the “self-splicing fitness (ln)” value is -0.471 ± 0.049 (30 °C) and -0.139 ± 0.062 (37 °C). In the case of GACCAGCAAUAUUACGUCCU, the “self-splicing fitness (ln)” value reads like this: (30 °C) -1.86 ± 0.1; (37 °C) 0.317 ± 0.11. With GACGAGCAAUAUUACGAAAA, the “self-splicing fitness (ln)” value (37 °C) was -3.07 ± 0.37. In the case of GACGAGCAAUAUUACGACGA, the “self-splicing fitness (ln)” value is -0.98 ± 0.11 (30 °C) and -1.07 ± 0.12 (37 °C). For GACGAGCAAUAUUACGACGG, the “self-splicing fitness (ln)” value (30 °C) was -1.82 ± 0.28. As to GACGAGCAAUAUUACGAGGA, the “self-splicing fitness (ln)” value reads like this: (30 °C) -2.28 ± 0.28; (37 °C) -2.66 ± 0.36. For GACGAGCAAUAUUACGAGUA, the “self-splicing fitness (ln)” value is -3.81 ± 0.39 (30 °C) and -3.26 ± 0.37 (37 °C). In the case of GACGAGCAAUAUUACGAUGG, the “self-splicing fitness (ln)” value by setting is: (30 °C) -3.7 ± 0.17; (37 °C) -3 ± 0.2. For the sequence GACGAGCAAUAUUACGCAUA, the “self-splicing fitness (ln)” value is -1.6 ± 0.21 (30 °C) and -0.87 ± 0.17 (37 °C).

Turning to GACGAGCAAUAUUACGCCAA, the “self-splicing fitness (ln)” value is -3.23 ± 0.28 (30 °C) and -0.956 ± 0.3 (37 °C). GACGAGCAAUAUUACGCGAC: the “self-splicing fitness (ln)” value was -2.09 ± 0.26 (30 °C) and -1.04 ± 0.27 (37 °C).

With GACGAGCAAUAUUACGCUCC, the “self-splicing fitness (ln)” value by setting is: (30 °C) -2.9 ± 0.29; (37 °C) -1.91 ± 0.34. Consider GACGAGCAAUAUUACGCUGC, for which, under “37 °C”, the “self-splicing fitness (ln)” value is -2.49 ± 0.49. Regarding GACGAGCAAUAUUACGGAUU, where the note is “37 °C”, the “self-splicing fitness (ln)” value is -2.03 ± 0.19. Turning to GACGAGCAAUAUUACGGGCA, the “self-splicing fitness (ln)” value runs as follows: (30 °C) -1.58 ± 0.18; (37 °C) -2.56 ± 0.29. For the sequence GACGAGCAAUAUUACGGGUA, the “self-splicing fitness (ln)” value (30 °C) was -3.66 ± 0.2 and the “self-splicing fitness (ln)” value (37 °C) is -2.94 ± 0.2.

Consider GACGAGCAAUAUUACGGUCA, for which the “self-splicing fitness (ln)” value was -2.22 ± 0.15 (30 °C) and -0.552 ± 0.15 (37 °C). For GACGAGCAAUAUUACGGUUU the same measures were -2.28 ± 0.11 and -1.87 ± 0.14. Regarding GACGAGCAAUAUUACGUACA, the “self-splicing fitness (ln)” value reads like this: (30 °C) -3.04 ± 0.27; (37 °C) -2.26 ± 0.2.
